Publication PMC8250900

B1: RBD4 (ssDNA)
DNA: GGGAGAGGAGGGAGATAGATATCAATGGGTGGGAGGGAGGGGGGCTTTATTCCGGTGTTTTTTCGTTTCGTGGATGCCACAGGAC
B2: SP5 (ssDNA)
DNA: GGGAGAGGAGGGAGATAGATATCAACCATGGTAGGTATTGCTTGGTAGGGATAGTGGGCTTGATGTTTCGTGGATGCCACAGGAC
B3: RBD1 (ssDNA)
DNA: GGGAGAGGAGGGAGATAGATATCAAGTTAGGTTCTGGATTAGGTTAGGGTTGTGTTGTTGTTAGGTTTCGTGGATGCCACAGGAC
B4: SP6 (ssDNA)
DNA: GGGAGAGGAGGGAGATAGATATCAACCCATGGTAGGTATTGCTTGGTAGGGATAGTGGGCTTGATGTTTCGTGGATGCCACAGGAC
B5: SP6 biotin (ssDNA)
DNA: B4 DNA
B6: RBD3 (ssDNA)
DNA: GGGAGAGGAGGGAGATAGATATCAATGGGTGTTTTGGTTGTAGGGTTTAGGTTTAGGGTACTCTTTTTCGTGGATGCCACAGGAC
B7: SP7 (ssDNA)
DNA: GGGAGAGGAGGGAGATAGATATCAAAGGAGGGTAGGTAGTGCTTGGTAGGGAAACTCCGCCGATTTTTCGTGGATGCCACAGGAC
B8: RBD2 (ssDNA)
DNA: GGGAGAGGAGGGAGATAGATATCAATACAGTTGGTTGTAGGTTTTTGTTAGGTTAGTTTAGGGTTTTTCGTGGATGCCACAGGAC

Key:
SARS-CoV-2 spike RBD = SARS-CoV-2 spike RBD (SARS-CoV-2, UniProt P0DTC2 319-591); experiment: flow cytometry
[1] = molecular target: T1, ACE2 extracellular domain (human, UniProt Q9BYF1 19-615); experiment: flow cytometry
T1 sequence (Q9BYF1 19-615): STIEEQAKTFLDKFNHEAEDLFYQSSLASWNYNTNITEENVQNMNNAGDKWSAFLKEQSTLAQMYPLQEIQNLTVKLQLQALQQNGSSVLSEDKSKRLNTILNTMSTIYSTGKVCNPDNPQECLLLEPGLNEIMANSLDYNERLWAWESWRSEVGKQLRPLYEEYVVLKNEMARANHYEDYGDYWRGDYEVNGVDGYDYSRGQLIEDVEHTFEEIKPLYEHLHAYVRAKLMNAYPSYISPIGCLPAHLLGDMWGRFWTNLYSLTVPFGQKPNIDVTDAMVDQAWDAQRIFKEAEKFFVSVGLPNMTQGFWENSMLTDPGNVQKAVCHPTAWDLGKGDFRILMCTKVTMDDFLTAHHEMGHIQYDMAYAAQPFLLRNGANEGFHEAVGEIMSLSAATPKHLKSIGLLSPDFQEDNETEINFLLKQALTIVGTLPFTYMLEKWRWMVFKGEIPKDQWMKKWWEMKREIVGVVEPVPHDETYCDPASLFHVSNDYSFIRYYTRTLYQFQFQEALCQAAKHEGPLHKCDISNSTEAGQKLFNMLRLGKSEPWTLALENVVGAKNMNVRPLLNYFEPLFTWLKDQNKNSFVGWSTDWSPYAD

[2] = molecular target: T2, SARS-CoV spike extracellular domain (CoV-S) (SARS-CoV, UniProt P59594 14-1190); experiment: flow cytometry
Nek7 = Nek7 (human, UniProt Q8TDX7 1-302); experiment: pull-down
Chain of Nek7 (Q8TDX7 whole entry, the tested form may be a part): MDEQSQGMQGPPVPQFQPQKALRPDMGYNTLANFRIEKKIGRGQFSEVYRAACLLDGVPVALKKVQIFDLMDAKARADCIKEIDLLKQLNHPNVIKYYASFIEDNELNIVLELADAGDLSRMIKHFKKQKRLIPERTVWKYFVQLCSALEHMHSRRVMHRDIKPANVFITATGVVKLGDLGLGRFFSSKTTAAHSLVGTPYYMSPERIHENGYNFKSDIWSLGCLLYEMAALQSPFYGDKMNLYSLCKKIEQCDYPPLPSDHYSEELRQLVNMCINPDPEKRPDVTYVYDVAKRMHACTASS

[3] = molecular target: T1, ACE2 extracellular domain; experiment: pull-down
[4] = molecular target: T2, SARS-CoV spike extracellular domain …; experiment: pull-down

Binder	binding result (SARS-CoV-2 spike RBD)	binding result [1]	binding result [2]	further results
B1	binds	–	–	–
B2	no binding	no binding	no binding	–
B3	binds	–	–	–
B4	no binding	no binding	no binding	–
B5	–	–	–	binding result (Nek7): no binding; binding result [3]: no binding; binding result [4]: no binding
B6	binds	–	–	–
B7	no binding	no binding	no binding	–
B8	binds	–	–	–
